target: T1, FcγRIIIa (human, UniProt P08637 17-208); assay: SPR (Biacore);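 note: antibody variants captured on an SPR sensor chip, with FcγRIIIa passed over as analyte in HBS-EP+ buffer at 25 °C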
T1 construct: extracellular domain; also called 3a; FcγRIIIa extracellular domain
T1 sequence (P08637 other isoform, or with tags, fused parts or gaps): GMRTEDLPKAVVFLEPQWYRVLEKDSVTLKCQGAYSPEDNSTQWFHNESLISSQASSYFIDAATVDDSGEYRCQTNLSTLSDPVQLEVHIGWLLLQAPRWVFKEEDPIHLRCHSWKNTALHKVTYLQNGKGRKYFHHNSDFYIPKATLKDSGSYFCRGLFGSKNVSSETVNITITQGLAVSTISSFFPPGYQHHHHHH

Row | Binder | He/Con 3a
1 | GpH7-A5/GpH7-B3 variant L235_14T/GpL16-k0 (antibody, human IgG1, kappa, copies: 1 + 1 + 2) heavy 1: not shown heavy 2: not shown light: DIVMTQSPLSLPVTPGEPASISCQASESLVHSNRNTYLHWYLQKPGQSPQLLIYKVSNRFSGVPDRFSGSGSGTDFTLKISRVEAEDVGVYYCSQNTHVPPTFGQGTKVEIERTVAAPSVFIFPPSDEQLKSGTASVVCLLNNFYPREAKVQWKVDNALQSGNSQESVTEQDSKDSTYSLSSTLTLSKADYEKHKVYACEVTHQGLSSPVTKSFNRGEC | 73.2 % of GpH7-A5/GpH7-B3/GpL16-k0
2 | GpH7-A5/GpH7-B3 variant L328_10E/GpL16-k0 (antibody, human IgG1, kappa, copies: 1 + 1 + 2) heavy 1: not shown heavy 2: not shown light: DIVMTQSPLSLPVTPGEPASISCQASESLVHSNRNTYLHWYLQKPGQSPQLLIYKVSNRFSGVPDRFSGSGSGTDFTLKISRVEAEDVGVYYCSQNTHVPPTFGQGTKVEIERTVAAPSVFIFPPSDEQLKSGTASVVCLLNNFYPREAKVQWKVDNALQSGNSQESVTEQDSKDSTYSLSSTLTLSKADYEKHKVYACEVTHQGLSSPVTKSFNRGEC | 54.9 % of GpH7-A5/GpH7-B3/GpL16-k0
3 | GpH7-A5/GpH7-B3 variant L235_13S/GpL16-k0 (antibody, human IgG1, kappa, copies: 1 + 1 + 2) heavy 1: not shown heavy 2: not shown light: DIVMTQSPLSLPVTPGEPASISCQASESLVHSNRNTYLHWYLQKPGQSPQLLIYKVSNRFSGVPDRFSGSGSGTDFTLKISRVEAEDVGVYYCSQNTHVPPTFGQGTKVEIERTVAAPSVFIFPPSDEQLKSGTASVVCLLNNFYPREAKVQWKVDNALQSGNSQESVTEQDSKDSTYSLSSTLTLSKADYEKHKVYACEVTHQGLSSPVTKSFNRGEC | 67.2 % of GpH7-A5/GpH7-B3/GpL16-k0
4 | GpH7-A5/GpH7-B3 variant L328_15Y/GpL16-k0 (antibody, human IgG1, kappa, copies: 1 + 1 + 2) heavy 1: not shown heavy 2: not shown light: DIVMTQSPLSLPVTPGEPASISCQASESLVHSNRNTYLHWYLQKPGQSPQLLIYKVSNRFSGVPDRFSGSGSGTDFTLKISRVEAEDVGVYYCSQNTHVPPTFGQGTKVEIERTVAAPSVFIFPPSDEQLKSGTASVVCLLNNFYPREAKVQWKVDNALQSGNSQESVTEQDSKDSTYSLSSTLTLSKADYEKHKVYACEVTHQGLSSPVTKSFNRGEC | 70.2 % of GpH7-A5/GpH7-B3/GpL16-k0
5 | GpH7-A5/GpH7-B3 variant N325_09D/GpL16-k0 (antibody, human IgG1, kappa, copies: 1 + 1 + 2) heavy 1: not shown heavy 2: not shown light: DIVMTQSPLSLPVTPGEPASISCQASESLVHSNRNTYLHWYLQKPGQSPQLLIYKVSNRFSGVPDRFSGSGSGTDFTLKISRVEAEDVGVYYCSQNTHVPPTFGQGTKVEIERTVAAPSVFIFPPSDEQLKSGTASVVCLLNNFYPREAKVQWKVDNALQSGNSQESVTEQDSKDSTYSLSSTLTLSKADYEKHKVYACEVTHQGLSSPVTKSFNRGEC | 53 % of GpH7-A5/GpH7-B3/GpL16-k0
6 | GpH7-A5/GpH7-B3 variant L328_04F/GpL16-k0 (antibody, human IgG1, kappa, copies: 1 + 1 + 2) heavy 1: not shown heavy 2: not shown light: DIVMTQSPLSLPVTPGEPASISCQASESLVHSNRNTYLHWYLQKPGQSPQLLIYKVSNRFSGVPDRFSGSGSGTDFTLKISRVEAEDVGVYYCSQNTHVPPTFGQGTKVEIERTVAAPSVFIFPPSDEQLKSGTASVVCLLNNFYPREAKVQWKVDNALQSGNSQESVTEQDSKDSTYSLSSTLTLSKADYEKHKVYACEVTHQGLSSPVTKSFNRGEC | 81.5 % of GpH7-A5/GpH7-B3/GpL16-k0
7 | GpH7-A5/GpH7-B3 variant N325_13S/GpL16-k0 (antibody, human IgG1, kappa, copies: 1 + 1 + 2) heavy 1: not shown heavy 2: not shown light: DIVMTQSPLSLPVTPGEPASISCQASESLVHSNRNTYLHWYLQKPGQSPQLLIYKVSNRFSGVPDRFSGSGSGTDFTLKISRVEAEDVGVYYCSQNTHVPPTFGQGTKVEIERTVAAPSVFIFPPSDEQLKSGTASVVCLLNNFYPREAKVQWKVDNALQSGNSQESVTEQDSKDSTYSLSSTLTLSKADYEKHKVYACEVTHQGLSSPVTKSFNRGEC | 71.9 % of GpH7-A5/GpH7-B3/GpL16-k0
8 | GpH7-A5/GpH7-B3 variant L235_20W/GpL16-k0 (antibody, human IgG1, kappa, copies: 1 + 1 + 2) heavy 1: not shown heavy 2: not shown light: DIVMTQSPLSLPVTPGEPASISCQASESLVHSNRNTYLHWYLQKPGQSPQLLIYKVSNRFSGVPDRFSGSGSGTDFTLKISRVEAEDVGVYYCSQNTHVPPTFGQGTKVEIERTVAAPSVFIFPPSDEQLKSGTASVVCLLNNFYPREAKVQWKVDNALQSGNSQESVTEQDSKDSTYSLSSTLTLSKADYEKHKVYACEVTHQGLSSPVTKSFNRGEC | 73.8 % of GpH7-A5/GpH7-B3/GpL16-k0
9 | GpH7-A5/GpH7-B3 variant L328_16H/GpL16-k0 (antibody, human IgG1, kappa, copies: 1 + 1 + 2) heavy 1: not shown heavy 2: not shown light: DIVMTQSPLSLPVTPGEPASISCQASESLVHSNRNTYLHWYLQKPGQSPQLLIYKVSNRFSGVPDRFSGSGSGTDFTLKISRVEAEDVGVYYCSQNTHVPPTFGQGTKVEIERTVAAPSVFIFPPSDEQLKSGTASVVCLLNNFYPREAKVQWKVDNALQSGNSQESVTEQDSKDSTYSLSSTLTLSKADYEKHKVYACEVTHQGLSSPVTKSFNRGEC | 55.9 % of GpH7-A5/GpH7-B3/GpL16-k0
10 | GpH7-A5/GpH7-B3 variant L235_15Y/GpL16-k0 (antibody, human IgG1, kappa, copies: 1 + 1 + 2) heavy 1: not shown heavy 2: not shown light: DIVMTQSPLSLPVTPGEPASISCQASESLVHSNRNTYLHWYLQKPGQSPQLLIYKVSNRFSGVPDRFSGSGSGTDFTLKISRVEAEDVGVYYCSQNTHVPPTFGQGTKVEIERTVAAPSVFIFPPSDEQLKSGTASVVCLLNNFYPREAKVQWKVDNALQSGNSQESVTEQDSKDSTYSLSSTLTLSKADYEKHKVYACEVTHQGLSSPVTKSFNRGEC | 77.8 % of GpH7-A5/GpH7-B3/GpL16-k0
11 | GpH7-A5/GpH7-B3 variant L328_13S/GpL16-k0 (antibody, human IgG1, kappa, copies: 1 + 1 + 2) heavy 1: not shown heavy 2: not shown light: DIVMTQSPLSLPVTPGEPASISCQASESLVHSNRNTYLHWYLQKPGQSPQLLIYKVSNRFSGVPDRFSGSGSGTDFTLKISRVEAEDVGVYYCSQNTHVPPTFGQGTKVEIERTVAAPSVFIFPPSDEQLKSGTASVVCLLNNFYPREAKVQWKVDNALQSGNSQESVTEQDSKDSTYSLSSTLTLSKADYEKHKVYACEVTHQGLSSPVTKSFNRGEC | 73.7 % of GpH7-A5/GpH7-B3/GpL16-k0
12 | GpH7-A5/GpH7-B3 variant L235_18N/GpL16-k0 (antibody, human IgG1, kappa, copies: 1 + 1 + 2) heavy 1: not shown heavy 2: not shown light: DIVMTQSPLSLPVTPGEPASISCQASESLVHSNRNTYLHWYLQKPGQSPQLLIYKVSNRFSGVPDRFSGSGSGTDFTLKISRVEAEDVGVYYCSQNTHVPPTFGQGTKVEIERTVAAPSVFIFPPSDEQLKSGTASVVCLLNNFYPREAKVQWKVDNALQSGNSQESVTEQDSKDSTYSLSSTLTLSKADYEKHKVYACEVTHQGLSSPVTKSFNRGEC | 65 % of GpH7-A5/GpH7-B3/GpL16-k0

Source: patent publication US20260167699A1 (Chugai, published 2026)
